# Data as given in patent US9808434B2, “Compound for treating cancer and diabetes” (CITY OF HOPE, priority 2011, dated 2017).
# Substrate: O=C(Nc1cc(Cl)cc(Cl)c1)Nc1cc(Cl)cc(Cl)c1
# Assay: Kinetics of GST-P using COH-SR4 as a substrate
# Type: biochemical
# Details: other: COH-SR4 as substrate, 1 mM GSH, pH 6.5, 340 nm, 37.0 °C
# Description: The cDNA of GSTP was cloned into the prokaryotic expression plasmid vector, pET30a(+) (Novagen), creating the GSTP-pET30a(+) plasmid free of extraneous sequences. Bam H1 and Xhol restriction sites were used for cloning. This plasmid was transfected into E. coli BL21 (DE3). Protein was expressed in E. coli BL21 (DE3) grown at 37° C. Once the OD600 reached 0.6 protein was induced with 0.4 mM IPTG.
# All purification steps were carried out at 4° C. unless otherwise specified. All buffers were prepared fresh and filter sterilized. Briefly, bacteria was lysed in 10 mM K-PO4 buffer pH 7.0 containing 1.4 mM β-mercaptoethanol (Buffer A) and 100 μM PMSF followed by sonication at 50 rpm for 3 times at 30 sec each. […] The supernatant was mixed with GSH-affinity resin for coupling for overnight at 4° C. The unbound proteins were washed with Buffer B until OD at 280 nm is zero. Bound protein (purified GSTP) was eluted with 50 mM Tris-HCl, pH 9.6 containing 1.4 mM β-mercaptoethanol. Elutes protein was dialyzed against Buffer A for overnight and the GSTP protein concentration was checked by Bradford's assay.
# Reaction systems were prepared by mixing COH-SR4 (50 μL, various final concentrations of 0˜10 μM), 100 μL of 10 mM GSH (GSH solution in GST assay buffer, pH 6.5), 10 μL of GSTP enzyme (0.52 mg/mL) and having 840 μL GST assay buffer (100 mM K-PO4 buffer, pH 6.5). […]
protein,measurement,value
"GST-P (Homo sapiens) (protein, made in house; host or cells: E. coli BL21 (DE3)) MPPYTVVYFPVRGRCAALRMLLADQGQSWKEEVVTVETWQEGSLKASCLYGQLPKFQDGDLTLYQSNTILRHLGRTLGLYGKDQQEAALVDMVNDGVEDLRCKYISLIYTNYEAGKDDYVKALPGQLKPFETLLSQNQGGKTFIVGDQISFADYNLLDLLLIHEVLAPGCLDAFPLLSAYVGRLSARPKLKAFLASPEYVNLPINGNGKQ",Km,40 µM
